Results on one substance are retold here after PMC10003956, “To the Understanding of Catalysis by D-Amino Acid Transaminases: A Case Study of the Enzyme from Aminobacterium colombiense” (Molecules, 2023).

In general, stoichiometry N refers to the number of molecules, sites or subunits per partner or assembly.

For the experiment, the target named is D-amino acid transaminase from Aminobacterium colombiense (AmicoTA) (Aminobacterium colombiense). Put plainly: SEC; gel filtration of AmicoTA in solution (Figure S7); conditions not told for this experiment. A general note: SEC sorts molecules by how far they enter the pores of the column.

Turning to “D-amino acid transaminase from Aminobacterium colombiense (AmicoTA) (enzyme)”, the stoichiometry N was 2.
